The supplement of paper PMC7877785
± gives the uncertainty stated by the source.

Assay: self-splicing fitness, log relative to wild type (ln ratio); higher = more splicing; Tetrahymena group I intron in knt gene, E. coli kanamycin selection, DiMSum; sequences stand for … in CUCUCU…GGAGGGAAAAGUUAUCAGGCAUGCACCUGGUAGCUAGUCUUUAAACCAAUAGAUUGCAUCGGUUUAAAAGGCAAGACCGUCAAAUUGCGGGAAAGGGGUCAACAGCCGUUCAGUACCAAGUCUCAGGGGAAACUUUGAGAUGGCCUUGCAAAGGGUAUGGUAAUAAGCUGACGGACAUGGUCCUAACCACGCAGCCAAGUCCUAAGUCAACAGAUCUUCUGUUGAUAUGGAUGCAGUUCACAGACUAAAUGUCGGUCGGGGAAGAUGUAUUCUUCUCAUAAGAUAUAGUCGGACCUCUCCUUAAUGGGAGCUAGCGGAUGAAGUGAUGCAACACUGGAGCCGCUGGGAACUAAUUUGUAUGCGAAAGUAUAUUGAUUAGUUUUGGAGUACUCGUGGUCG
Outline: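 The eight P1ex-region nucleotides of an intron in the knt kanamycin-resistance gene on pET-22b(+) were all randomised and the library put into E. coli BL21(DE3). Six replicate transformations were grown overnight at 37°C or 30°C on LB agar with or without 25 μg/mL kanamycin, together with 100 μg/mL carbenicillin, 50 μM IPTG and 0.2% rhamnose. Colonies were pooled and amplicon-sequenced on an Illumina HiSeq 2500. Fitness from DiMSum is the error-weighted combination of wild-type-normalised replicate fold changes, kanamycin over none.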

Sequence | self-splicing fitness (ln) (30 °C) | self-splicing fitness (ln) (37 °C)
AGCAAGCAAUAUUACGGAUA | -3.3 ± 0.28 | -1.77 ± 0.19
CGGCAGCAAUAUUACGGGUU | -4.26 ± 0.28 | -2.87 ± 0.33
GAAAAGCAAUAUUACGCUAA | -2.24 ± 0.16 | -1.1 ± 0.13
CCCUAGCAAUAUUACGAGGC | -4.41 ± 0.42 | -4.06 ± 0.18
GAGAAGCAAUAUUACGAAGG | -2.97 ± 0.24 | –
CUGCAGCAAUAUUACGUAAG | -0.296 ± 0.069 | 0.277 ± 0.08
GUCCAGCAAUAUUACGCGGA | -3.96 ± 0.25 | -4.4 ± 0.46
UAAUAGCAAUAUUACGUCAA | -2.33 ± 0.17 | -1.77 ± 0.15
UUCCAGCAAUAUUACGAUUC | -1.5 ± 0.17 | -2.04 ± 0.27
UAAUAGCAAUAUUACGUACA | -1.05 ± 0.11 | -0.0465 ± 0.13
UACAAGCAAUAUUACGAUCC | -3.27 ± 0.27 | -1.78 ± 0.24
UUAGAGCAAUAUUACGCGAG | -0.443 ± 0.084 | -0.0681 ± 0.094
GACGAGCAAUAUUACGGUAC | -1.99 ± 0.39 | -1.98 ± 0.34
CACUAGCAAUAUUACGGGCC | -4.05 ± 0.25 | -2.56 ± 0.22
ACGAAGCAAUAUUACGUAGG | -2.12 ± 0.099 | -1.43 ± 0.15
CUAAAGCAAUAUUACGCAUA | -3.66 ± 0.23 | -2.65 ± 0.24
AUCUAGCAAUAUUACGCAGA | -3.1 ± 0.49 | -1.82 ± 0.23
UGCCAGCAAUAUUACGCCUA | -0.546 ± 0.074 | 0.0605 ± 0.087
CGACAGCAAUAUUACGCAUU | -2.93 ± 0.15 | -2.03 ± 0.16
ACACAGCAAUAUUACGGUGA | -1.31 ± 0.068 | 0.17 ± 0.077
CUAGAGCAAUAUUACGAGAC | -2.63 ± 0.29 | -0.86 ± 0.3
UAGUAGCAAUAUUACGUCGU | -3.76 ± 0.38 | -2.81 ± 0.21
UACCAGCAAUAUUACGUACG | -0.42 ± 0.12 | -0.594 ± 0.15
UACAAGCAAUAUUACGACUC | -2.6 ± 0.14 | -1.2 ± 0.16

Sequence | self-splicing fitness (ln) (30 °C) | self-splicing fitness (ln) (37 °C)
UAGAAGCAAUAUUACGAUUG | -1.74 ± 0.07 | -0.442 ± 0.083
AGGAAGCAAUAUUACGCUCG | -0.643 ± 0.16 | -0.865 ± 0.21
CCAGAGCAAUAUUACGUCUA | -2.37 ± 0.19 | -2.23 ± 0.24
GAACAGCAAUAUUACGAAAA | -1.77 ± 0.14 | -1.65 ± 0.12
AAACAGCAAUAUUACGGAUA | -2.99 ± 0.15 | -1.92 ± 0.14
UCCGAGCAAUAUUACGGGGG | -4.27 ± 0.33 | -2.47 ± 0.22
GGGUAGCAAUAUUACGUUGA | -2.44 ± 0.16 | -0.495 ± 0.11
ACGAAGCAAUAUUACGGUGU | -2.71 ± 0.11 | -1.59 ± 0.095
CCUGAGCAAUAUUACGAUGA | -2.57 ± 0.2 | -1.44 ± 0.18
AAAAAGCAAUAUUACGCUCG | -0.161 ± 0.11 | 0.0542 ± 0.14
AUGGAGCAAUAUUACGCGGU | -2.6 ± 0.25 | -2.29 ± 0.25
GCAAAGCAAUAUUACGAGCC | -2.28 ± 0.28 | –
AUAUAGCAAUAUUACGGUCG | -1.44 ± 0.13 | -1.26 ± 0.17
UAGAAGCAAUAUUACGCUUG | -2.11 ± 0.11 | -1.05 ± 0.12
CCAGAGCAAUAUUACGGUGG | -3.31 ± 0.17 | -3.31 ± 0.24
UCCCAGCAAUAUUACGUGUC | -2.9 ± 0.15 | -2.44 ± 0.16
CACCAGCAAUAUUACGGCGC | -2.3 ± 0.11 | -1.5 ± 0.13
AAGGAGCAAUAUUACGUCUU | -1.9 ± 0.09 | -1.14 ± 0.13
UGUCAGCAAUAUUACGACAG | -1.62 ± 0.16 | -0.615 ± 0.14
GCUGAGCAAUAUUACGCCGU | – | -0.103 ± 0.24
AUCAAGCAAUAUUACGCAAA | -2.96 ± 0.2 | -1.67 ± 0.15
AACCAGCAAUAUUACGUGGG | -3.94 ± 0.12 | -2.57 ± 0.094
UCCCAGCAAUAUUACGUACG | -3.27 ± 0.2 | -2.93 ± 0.3
ACAGAGCAAUAUUACGGGUG | -2.96 ± 0.15 | -1.43 ± 0.12
